Assay results published in US7118879.
Read-outs that look alike come from different tables or passages of the source.

Assays:
[1] = target: human neutrophil elastase (immobilized on Reacti-Gel agarose beads, or free) (human) (UniProt P08246); experiment: HNE beads, pH 5.5 eluate
[2] = target: human neutrophil elastase (immobilized on Reacti-Gel agarose beads, or free) (human) (UniProt P08246); experiment: HNE beads, pH 5.5 eluate; remark: listed apart in the source
[3] = target: human neutrophil elastase (immobilized on Reacti-Gel agarose beads, or free) (human) (UniProt P08246); experiment: HNE beads, pH 4.5 eluate
[4] = target: human neutrophil elastase (immobilized on Reacti-Gel agarose beads, or free) (human) (UniProt P08246); experiment: HNE beads, pH 2.0 eluate
[5] = target: human neutrophil elastase (immobilized on Reacti-Gel agarose beads, or free) (human) (UniProt P08246); experiment: HNE beads, pH 3.5 eluate
[6] = target: human neutrophil elastase (immobilized on Reacti-Gel agarose beads, or free) (human) (UniProt P08246); experiment: HNE beads, pH 4.5 eluate; remark: listed apart in the source
[7] = target: human neutrophil elastase (immobilized on Reacti-Gel agarose beads, or free) (human) (UniProt P08246); experiment: HNE beads, pH 6.0 eluate
[8] = target: human neutrophil elastase (immobilized on Reacti-Gel agarose beads, or free) (human) (UniProt P08246); experiment: HNE beads, all pH eluates
[9] = target: human neutrophil elastase (immobilized on Reacti-Gel agarose beads, or free) (human) (UniProt P08246); experiment: HNE beads, pH 2.5 eluate
[10] = target: human neutrophil elastase (immobilized on Reacti-Gel agarose beads, or free) (human) (UniProt P08246); experiment: HNE beads, final TBS-TWEEN wash
[11] = target: human neutrophil elastase (immobilized on Reacti-Gel agarose beads, or free) (human) (UniProt P08246); experiment: HNE beads, all pH eluates; remark: listed apart in the source
[12] = target: human neutrophil elastase (immobilized on Reacti-Gel agarose beads, or free) (human) (UniProt P08246); experiment: HNE beads, pH 5.0 eluate
[13] = target: human neutrophil elastase (immobilized on Reacti-Gel agarose beads, or free) (human) (UniProt P08246); experiment: HNE beads, pH 2.0 eluate; remark: listed apart in the source
[14] = target: human neutrophil elastase (immobilized on Reacti-Gel agarose beads, or free) (human) (UniProt P08246); experiment: pH elution of clonal phage from HNE beads (FIG. 9)
[15] = target: human neutrophil elastase (immobilized on Reacti-Gel agarose beads, or free) (human) (UniProt P08246); experiment: HNE beads, all pH eluates; remark: listed apart in the source
[16] = target: human neutrophil elastase (immobilized on Reacti-Gel agarose beads, or free) (human) (UniProt P08246); experiment: pH elution of phage from HNE beads
[17] = target: human neutrophil elastase (immobilized on Reacti-Gel agarose beads, or free) (human) (UniProt P08246); experiment: HNE beads, pH 4.0 eluate
[18] = target: human neutrophil elastase (immobilized on Reacti-Gel agarose beads, or free) (human) (UniProt P08246); experiment: HNE beads, pH 3.5 eluate; remark: listed apart in the source
[19] = target: human neutrophil elastase (immobilized on Reacti-Gel agarose beads, or free) (human) (UniProt P08246); experiment: HNE beads, pH 2.0 eluate; remark: listed apart in the source
[20] = target: human neutrophil elastase (immobilized on Reacti-Gel agarose beads, or free) (human) (UniProt P08246); experiment: HNE beads, pH 2.5 eluate; remark: listed apart in the source
[21] = target: human neutrophil elastase (immobilized on Reacti-Gel agarose beads, or free) (human) (UniProt P08246); experiment: HNE beads, pH 7.0 eluate
[22] = target: human neutrophil elastase (immobilized on Reacti-Gel agarose beads, or free) (human) (UniProt P08246); experiment: HNE beads, pH 3.0 eluate
[23] = target: human neutrophil elastase (immobilized on Reacti-Gel agarose beads, or free) (human) (UniProt P08246); experiment: HNE beads, pH 7.0 eluate; remark: listed apart in the source
[24] = target: human neutrophil elastase (immobilized on Reacti-Gel agarose beads, or free) (human) (UniProt P08246); experiment: HNE beads, pH 3.5 eluate; remark: listed apart in the source
[25] = target: human neutrophil elastase (immobilized on Reacti-Gel agarose beads, or free) (human) (UniProt P08246); experiment: HNE beads, wash
[26] = target: human neutrophil elastase (immobilized on Reacti-Gel agarose beads, or free) (human) (UniProt P08246); experiment: HNE beads, pH 7.0 eluate; remark: listed apart in the source
[27] = target: human neutrophil elastase (immobilized on Reacti-Gel agarose beads, or free) (human) (UniProt P08246); experiment: HNE beads, pH 3.0 eluate; remark: listed apart in the source
[28] = target: human neutrophil elastase (immobilized on Reacti-Gel agarose beads, or free) (human) (UniProt P08246); experiment: HNE beads, pH 4.0 eluate; remark: listed apart in the source
[29] = target: human neutrophil elastase (immobilized on Reacti-Gel agarose beads, or free) (human) (UniProt P08246); experiment: HNE beads, pH 6.0 eluate; remark: listed apart in the source
[30] = target: human neutrophil elastase (immobilized on Reacti-Gel agarose beads, or free) (human) (UniProt P08246); experiment: HNE beads, pH 5.0 eluate; remark: listed apart in the source
[31] = target: anhydro-trypsin (agarose-immobilized) (UniProt P00760); experiment: acid-eluted from anhydrotrypsin beads, experiment 2
[32] = target: anhydro-trypsin (agarose-immobilized) (UniProt P00760); experiment: anhydrotrypsin beads
[33] = target: anhydro-trypsin (agarose-immobilized) (UniProt P00760); experiment: anhydrotrypsin beads, experiment 1
[34] = target: trypsin (active, immobilized on beads, or in solution) (UniProt P00760); experiment: trypsin beads
Chain of trypsin (active, immobilized on beads, or in solution) (P00760 24-246): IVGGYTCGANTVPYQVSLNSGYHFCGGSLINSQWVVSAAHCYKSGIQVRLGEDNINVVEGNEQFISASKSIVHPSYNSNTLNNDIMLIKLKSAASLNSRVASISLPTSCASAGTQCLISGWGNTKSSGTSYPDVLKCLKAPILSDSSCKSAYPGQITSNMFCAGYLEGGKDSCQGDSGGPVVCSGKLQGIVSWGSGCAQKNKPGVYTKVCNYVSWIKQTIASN

[35] = target: anhydro-trypsin (agarose-immobilized) (UniProt P00760); experiment: eluted from anhydrotrypsin beads
[36] = target: protein A (agarose beads) (UniProt P38507); experiment: titer after protein A beads alone
[37] = target: anhydro-trypsin (agarose-immobilized) (UniProt P00760); experiment: acid-eluted from anhydrotrypsin beads, experiment 1
[38] = target: trypsin (active, immobilized on beads, or in solution) (UniProt P00760); experiment: acid-eluted from trypsin beads
[39] = target: human neutrophil elastase (immobilized on Reacti-Gel agarose beads, or free) (human) (UniProt P08246); experiment: acid-eluted from HNE beads
[40] = target: anhydro-trypsin (agarose-immobilized) (UniProt P00760); experiment: anhydrotrypsin beads, experiment 2
[41] = target: human neutrophil elastase (immobilized on Reacti-Gel agarose beads, or free) (human) (UniProt P08246); experiment: HNE beads
[42] = target: anhydro-trypsin (agarose-immobilized) (UniProt P00760); experiment: titer after anhydrotrypsin beads
[43] = target: trypsin (active, immobilized on beads, or in solution) (UniProt P00760); experiment: eluted from trypsin beads

Chain of human neutrophil elastase (immobilized on Reacti-Gel agarose beads, or free) (human) (P08246 30-247 limits assumed): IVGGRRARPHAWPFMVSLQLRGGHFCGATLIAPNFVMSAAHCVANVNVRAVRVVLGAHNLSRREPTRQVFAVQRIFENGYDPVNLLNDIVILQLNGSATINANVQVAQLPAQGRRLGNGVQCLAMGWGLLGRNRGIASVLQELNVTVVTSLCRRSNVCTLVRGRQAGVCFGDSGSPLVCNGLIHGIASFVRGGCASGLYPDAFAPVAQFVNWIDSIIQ

Substance: EpiNE7 phage (designed binder)
- fraction of input [1]: 0.00028
- total pfu in sample [1]: 940000 pfu
- fraction of input [2]: 0.00043
- total pfu in sample [2]: 780000 pfu
- fraction of input [3]: 0.00061
- total pfu in sample [3]: 1.1e+06 pfu
- fraction of input [4]: 0.00016
- total pfu in sample [4]: 290000 pfu
- fraction of input [5]: 0.00029
- total pfu in sample [5]: 950000 pfu
- fraction of input [6]: 0.00035
- total pfu in sample [6]: 1.2e+06 pfu
- fraction of input [7]: 0.00041
- total pfu in sample [7]: 1.4e+06 pfu
- fraction of input, SUM of pH elution fractions [8]: 0.0041
- total pfu, SUM of pH elution fractions [8]: 7.6e+06 pfu
- fraction of input [9]: 4.8e-05
- total pfu in sample [9]: 160000 pfu
- fraction of input [10]: 0.00012
- total pfu in sample [10]: 380000 pfu
- fraction of input, SUM of pH elution fractions [11]: 0.003
- total pfu, SUM of pH elution fractions [11]: 6.4e+06 pfu
- fraction of input [12]: 0.00047
- total pfu in sample [12]: 840000 pfu
- fraction of input [13]: 9.1e-05
- total pfu in sample [13]: 300000 pfu
- pH of elution peak [14]: 3.5 pH
- fraction of input, SUM of pH elution fractions [15]: 0.0043
- pH of elution peak [16]: 3.5 pH
- fraction of input [17]: 0.00094
- total pfu in sample [17]: 1.7e+06 pfu
- fraction of input [18]: 0.003
- fraction of input [19]: 0.001
- fraction of input [20]: 0.00016
- total pfu in sample [20]: 280000 pfu
- fraction of input [21]: 0.00018
- total pfu in sample [21]: 620000 pfu
- fraction of input [22]: 0.00021
- total pfu in sample [22]: 380000 pfu
- fraction of input [23]: 0.00029
- total pfu in sample [23]: 520000 pfu
- fraction of input [24]: 0.00061
- total pfu in sample [24]: 1.1e+06 pfu
- fraction of input [25]: 6e-05
- fraction of input [26]: 0.0003
- fraction of input [27]: 0.0002
- total pfu in sample [27]: 660000 pfu
- fraction of input [28]: 0.00048
- total pfu in sample [28]: 1.6e+06 pfu
- fraction of input [29]: 0.00036
- total pfu in sample [29]: 640000 pfu
- fraction of input [30]: 0.00029
- total pfu in sample [30]: 950000 pfu

Substance: M13mp18 phage (wild type, non-display phage)
- eluted phage, % of input [31]: 0.3%
- relative binding (to M13MP18) [32]: 1 fold
- binding relative to M13MP18 [33]: 1 fold
- relative binding (to M13MP18) [34]: 1 fold
- eluted phage, % of input [35]: 0.1%
- % of input pfu [36]: 72%
- eluted phage, % of input [37]: 0.2%
- eluted phage, % of input [38]: 0.0005%
- eluted phage, % of input [39]: 0.0003%
- binding relative to M13mp18 [40]: 1 fold
- relative binding (to M13MP18) [41]: 1 fold
- % of input pfu post incubation [42]: 121%
- eluted phage, % of input [43]: 0.00023%
